The values that follow come from US12018066.

Test [1] deals with SARS-CoV-2 spike protein receptor binding domain (RBD2) (SARS-CoV-2) (UniProt P0DTC2). As to the kind of experiment: SPR, immobilized antibody, RBD injected, 1:1 fit.
For test [2] the target is unchanged. As to the kind of experiment: SPR sandwich binning, ligand H05.
Test [3] has the same target.
The target is the same in test [4]. In words: SPR sandwich binning, ligand B04.
For test [5] the target is unchanged. As to the kind of experiment: SPR sandwich binning, ligand S01.
Test [6] has the same target. As to the kind of experiment: SPR sandwich binning, ligand E08.
The target is the same in test [7]. In words: SPR sandwich binning, ligand F07; light (intermediate) cell.
Test [8] has the same target. As to the kind of experiment: SPR sandwich binning, ligand Anti-His.
Test [9] shares this target. In words: SPR sandwich binning, ligand CR3022.
Test [10] shares this target. In words: SPR sandwich binning, ligand G07.
For test [11] the target is unchanged. As to the kind of experiment: SPR sandwich binning, ligand E01.
Test [12] has the same target. In words: SPR sandwich binning, ligand H01.

pKd: −log10 of the molar value. Like-named read-outs stand apart in the source and are kept apart here.

“CR3022 (commercial anti-RBD2 antibody, reference IgG)”: the negative logarithm of the Kd (pKd) – broadly, the Kd on a negative log10 scale, so that one unit is a factor of ten – in test [1] was 6.96; in test [3] it was 6.94. The normalized analyte binding to RBD2 held by the immobilized ligand was -0.14 in test [2]; 1.64 in test [4]; 1.83 in [5]; -0.1 in test [6]; 0.23 in [7]; 1.45 in test [8]. Also, the normalized analyte binding to RBD2 held by the immobilized ligand in [9] was -0.14; in [10], 1.35; in [11], 1.63; in [12], -0.01.
